Measurements from patent US20230250154A1 (CYTONICS, published 2023).

What was measured:
Experiment in all cases: cell-based or functional assay
MMP12 = MMP12 (human, UniProt P39900 106-470, limits assumed)
ADAMTS4 = molecular target: T1, ADAMTS4 (human, UniProt O75173 213-685, limits assumed)
T1 sequence (looked up): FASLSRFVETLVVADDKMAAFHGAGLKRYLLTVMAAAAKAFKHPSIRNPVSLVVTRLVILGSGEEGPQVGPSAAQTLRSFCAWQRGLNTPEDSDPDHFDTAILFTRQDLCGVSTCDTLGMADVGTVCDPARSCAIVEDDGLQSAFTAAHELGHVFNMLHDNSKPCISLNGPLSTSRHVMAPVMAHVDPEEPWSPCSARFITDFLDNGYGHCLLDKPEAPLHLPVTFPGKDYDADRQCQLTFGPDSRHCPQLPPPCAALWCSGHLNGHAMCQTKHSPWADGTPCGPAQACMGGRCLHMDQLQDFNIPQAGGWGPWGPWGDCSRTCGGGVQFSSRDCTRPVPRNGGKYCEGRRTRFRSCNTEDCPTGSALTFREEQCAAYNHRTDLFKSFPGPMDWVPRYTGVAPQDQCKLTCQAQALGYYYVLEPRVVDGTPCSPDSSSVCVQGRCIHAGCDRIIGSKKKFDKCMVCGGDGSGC

ADAMTS5 = molecular target: T2, ADAMTS5 (human, UniProt Q9UNA0 262-622, limits assumed)
T2 sequence (looked up): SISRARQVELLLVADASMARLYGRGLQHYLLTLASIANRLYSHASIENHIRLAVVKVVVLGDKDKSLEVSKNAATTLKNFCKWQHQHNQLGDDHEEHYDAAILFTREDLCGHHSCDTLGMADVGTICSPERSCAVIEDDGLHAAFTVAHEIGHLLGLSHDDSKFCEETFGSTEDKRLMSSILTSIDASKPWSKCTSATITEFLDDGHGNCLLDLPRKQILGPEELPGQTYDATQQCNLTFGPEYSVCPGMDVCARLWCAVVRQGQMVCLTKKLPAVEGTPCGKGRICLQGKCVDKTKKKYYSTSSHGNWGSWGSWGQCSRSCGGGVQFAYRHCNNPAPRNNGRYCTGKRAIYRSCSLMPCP

MMP13 = MMP13 (human, UniProt P45452 104-471, limits assumed)
MMP8 = MMP8 (human, UniProt P22894 101-467, limits assumed)
Sequence of MMP8 (P22894 101-467 limits assumed): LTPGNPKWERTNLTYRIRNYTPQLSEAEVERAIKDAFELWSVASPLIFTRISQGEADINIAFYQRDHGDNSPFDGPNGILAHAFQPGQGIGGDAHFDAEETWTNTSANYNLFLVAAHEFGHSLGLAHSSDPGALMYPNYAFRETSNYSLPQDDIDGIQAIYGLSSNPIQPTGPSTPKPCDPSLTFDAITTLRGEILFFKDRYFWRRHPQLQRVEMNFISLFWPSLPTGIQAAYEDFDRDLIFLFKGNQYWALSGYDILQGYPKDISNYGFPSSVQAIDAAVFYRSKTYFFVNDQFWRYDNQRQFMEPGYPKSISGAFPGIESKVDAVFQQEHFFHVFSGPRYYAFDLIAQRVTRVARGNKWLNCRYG

MMP2 = molecular target: T3, MMP2 (human, UniProt P08253 110-660, limits assumed)
T3 sequence (looked up): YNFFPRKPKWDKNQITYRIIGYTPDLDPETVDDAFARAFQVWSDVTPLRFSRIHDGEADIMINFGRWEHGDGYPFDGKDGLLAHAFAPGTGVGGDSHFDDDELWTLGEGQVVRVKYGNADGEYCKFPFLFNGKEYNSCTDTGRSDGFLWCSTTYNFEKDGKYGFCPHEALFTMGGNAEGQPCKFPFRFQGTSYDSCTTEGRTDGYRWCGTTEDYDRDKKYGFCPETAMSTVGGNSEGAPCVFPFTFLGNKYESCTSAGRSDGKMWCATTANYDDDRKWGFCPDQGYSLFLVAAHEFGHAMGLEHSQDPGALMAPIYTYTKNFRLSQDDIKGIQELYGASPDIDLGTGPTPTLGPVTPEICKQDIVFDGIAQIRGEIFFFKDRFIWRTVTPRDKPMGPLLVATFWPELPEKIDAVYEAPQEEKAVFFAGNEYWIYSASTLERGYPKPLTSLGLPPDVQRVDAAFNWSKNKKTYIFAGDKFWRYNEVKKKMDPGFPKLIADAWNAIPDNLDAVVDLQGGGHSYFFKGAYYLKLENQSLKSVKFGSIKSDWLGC

MMP9 = MMP9 (human, UniProt P14780 107-707, limits assumed)
Sequence of MMP9 (P14780 107-707 limits assumed): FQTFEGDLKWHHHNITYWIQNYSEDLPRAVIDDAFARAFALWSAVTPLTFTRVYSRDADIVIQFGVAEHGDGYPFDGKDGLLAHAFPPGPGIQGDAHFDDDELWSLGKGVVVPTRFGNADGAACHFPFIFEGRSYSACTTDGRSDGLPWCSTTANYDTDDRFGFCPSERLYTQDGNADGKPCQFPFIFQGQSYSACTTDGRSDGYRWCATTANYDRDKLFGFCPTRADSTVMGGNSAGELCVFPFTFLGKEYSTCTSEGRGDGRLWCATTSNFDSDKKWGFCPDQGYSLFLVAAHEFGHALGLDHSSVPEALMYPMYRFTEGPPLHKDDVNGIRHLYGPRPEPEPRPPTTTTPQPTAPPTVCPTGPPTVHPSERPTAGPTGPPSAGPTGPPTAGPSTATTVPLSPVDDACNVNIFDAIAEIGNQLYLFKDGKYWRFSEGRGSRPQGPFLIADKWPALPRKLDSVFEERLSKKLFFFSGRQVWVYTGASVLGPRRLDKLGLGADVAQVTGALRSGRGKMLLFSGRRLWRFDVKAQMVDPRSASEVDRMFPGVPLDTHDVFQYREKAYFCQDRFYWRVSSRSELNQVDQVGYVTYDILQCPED

MMP3 = MMP3 (human, UniProt P08254 100-477, limits assumed)
Sequence of MMP3 (P08254 100-477 limits assumed): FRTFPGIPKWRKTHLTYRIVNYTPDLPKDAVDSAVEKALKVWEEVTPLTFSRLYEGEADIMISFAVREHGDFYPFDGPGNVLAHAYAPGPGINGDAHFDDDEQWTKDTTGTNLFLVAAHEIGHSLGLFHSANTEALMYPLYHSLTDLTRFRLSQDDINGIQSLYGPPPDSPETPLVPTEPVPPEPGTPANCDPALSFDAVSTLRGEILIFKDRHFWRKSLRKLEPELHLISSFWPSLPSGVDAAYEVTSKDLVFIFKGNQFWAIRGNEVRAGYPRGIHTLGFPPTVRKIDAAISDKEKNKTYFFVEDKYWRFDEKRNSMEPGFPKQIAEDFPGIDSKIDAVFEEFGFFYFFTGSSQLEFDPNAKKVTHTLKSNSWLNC

MMP1 = molecular target: T4, MMP1 (human, UniProt P03956 100-469, limits assumed)
T4 sequence (looked up): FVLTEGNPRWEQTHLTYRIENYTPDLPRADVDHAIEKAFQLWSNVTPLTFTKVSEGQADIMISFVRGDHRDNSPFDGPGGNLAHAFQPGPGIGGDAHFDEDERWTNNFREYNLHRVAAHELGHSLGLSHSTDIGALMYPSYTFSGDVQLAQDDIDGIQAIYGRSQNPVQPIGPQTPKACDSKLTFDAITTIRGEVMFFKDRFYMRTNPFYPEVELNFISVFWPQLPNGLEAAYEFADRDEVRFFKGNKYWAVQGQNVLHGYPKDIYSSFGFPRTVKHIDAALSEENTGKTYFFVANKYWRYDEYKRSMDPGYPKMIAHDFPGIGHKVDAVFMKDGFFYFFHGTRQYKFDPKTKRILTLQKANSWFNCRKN

chymotrypsin = molecular target: chymotrypsin
bovine trypsin = bovine trypsin (bovine, UniProt P00760 24-246)
Sequence of bovine trypsin (P00760 24-246): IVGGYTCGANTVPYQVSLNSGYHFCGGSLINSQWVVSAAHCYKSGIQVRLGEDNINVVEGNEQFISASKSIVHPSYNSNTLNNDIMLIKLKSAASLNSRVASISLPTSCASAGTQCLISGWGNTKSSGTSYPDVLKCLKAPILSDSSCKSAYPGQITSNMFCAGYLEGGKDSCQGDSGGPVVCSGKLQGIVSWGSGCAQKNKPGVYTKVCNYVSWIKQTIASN

Cathepsin G = molecular target: T5, Cathepsin G (UniProt P08311 21-244)
T5 sequence (looked up): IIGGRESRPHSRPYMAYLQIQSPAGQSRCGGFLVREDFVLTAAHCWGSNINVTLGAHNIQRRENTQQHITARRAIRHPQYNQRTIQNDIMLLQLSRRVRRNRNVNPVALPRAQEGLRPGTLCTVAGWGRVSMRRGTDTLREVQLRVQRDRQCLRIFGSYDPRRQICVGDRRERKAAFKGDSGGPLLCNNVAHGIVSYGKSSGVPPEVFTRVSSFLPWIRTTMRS

Elastase = molecular target: Elastase

Sequence of MMP12 (P39900 106-470 limits assumed): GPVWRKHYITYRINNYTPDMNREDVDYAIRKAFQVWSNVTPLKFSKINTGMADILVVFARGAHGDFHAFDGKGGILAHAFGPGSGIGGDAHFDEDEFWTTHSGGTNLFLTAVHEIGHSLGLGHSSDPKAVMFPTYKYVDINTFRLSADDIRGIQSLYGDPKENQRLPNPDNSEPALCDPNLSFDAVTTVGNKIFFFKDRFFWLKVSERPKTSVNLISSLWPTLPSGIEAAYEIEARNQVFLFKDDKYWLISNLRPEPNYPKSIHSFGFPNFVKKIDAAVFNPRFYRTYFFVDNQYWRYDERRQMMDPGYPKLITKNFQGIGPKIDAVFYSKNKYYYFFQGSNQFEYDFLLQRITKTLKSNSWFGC

Protease Inhibition (% of WT) (MMP12): 150 % of WT
Protease Inhibition (% of WT) (ADAMTS4): 80 % of WT
Protease Inhibition (% of WT) (ADAMTS5): 373 % of WT
Protease Inhibition (% of WT) (MMP13): 113 % of WT
Protease Inhibition (% of WT) (MMP8): 133 % of WT
Protease Inhibition (% of WT) (MMP2): 47 % of WT
Protease Inhibition (% of WT) (MMP9): 500 % of WT
Protease Inhibition (% of WT) (MMP3): 130 % of WT
Protease Inhibition (% of WT) (MMP1): 370 % of WT
Protease Inhibition (% of WT) (chymotrypsin): 25 % of WT
Protease Inhibition (% of WT) (bovine trypsin): 221 % of WT
Protease Inhibition (% of WT) (Cathepsin G): 376 % of WT
Protease Inhibition (% of WT) (Elastase): 250 % of WT
B1: Variant A2M, bait region SEQ ID NO 136 (other)
chain: SVSGKPQYMVLVPSLLHTETTEKGCVLLSYLNETVTVSASLESVRGNRSLFTDLEAENDVLHCVAFAVPKSSSNEEVMFLTVQVKGPTQEFKKRTTVMVKNEDSLVFVQTDKSIYKPGQTVKFRVVSMDENFHPLNELIPLVYIQDPKGNRIAQWQSFQLEGGLKQFSFPLSSEPFQGSYKVVVQKKSGGRTEHPFTVEEFVLPKFEVQVTVPKIITILEEEMNVSVCGLYTYGKPVPGHVTVSICRKYSDASDCHGEDSQAFCEKFSGQLNSHGCFYQQVKTKVFQLKRKEYEMKLHTEAQIQEEGTVVELTGRQSSEITRTITKLSFVKVDSHFRQGIPFFGQVRLVDGKGVPIPNKVIFIRGNEANYYSNATTDEHGLVQFSINTTNVMGTSLTVRVNYKDRSPCYGYQWVSEEHEEAHHTAYLVFSPSKSFVHLEPMSHELPCGHTQTVQAHYILNGGTLLGLKKLSFYYLIMAKGGIVRTGTHGLLVKQEDMKGHFSISIPVKSDIAPVARLLIYAVLPTGDVIGDSAKYDVENCLANKVDLSFSPSQSLPASHAHLRVTAAPQSVCALRAVDQSVLLMKPDAELSASSVYNLLPEKDLTGFPGPLNDQDDEDCINRHNVYINGITYTPVSSTNEKDMYSFLEDMGLKAFTNSKIRKPKMCPQLEQYEMHGPKEEEGLGSIPENFFGVSELEGRGSEGEGEGEGVEEPHTKLRKYFPETWIWDLVVVNSAGVAEVGVTVPDTITEWKAGAFCLSEDAGLGISSTASLRAFQPFFVELTMPYSVIRGEAFTLKATVLNYLPKCIRVSVQLEASPAFLAVPVEKEQAPHCICANGRQTVSWAVTPKSLGNVNFTVSAEALESQELCGTEVPSVPEHGRKDTVIKPLLVEPEGLEKETTFNSLLCPSGGEVSEELSLKLPPNVVEESARASVSVLGDILGSAMQNTQNLLQMPYGCGEQNMVLFAPNIYVLDYLNETQQLTPEIKSKAIGYLNTGYQRQLNYKHYDGSYSTFGERYGRNQGNTWLTAFVLKTFAQARAYIFIDEAHITQALIWLSQRQKDNGCFRSSGSLLNNAIKGGVEDEVTLSAYITIALLEIPLTVTHPVVRNALFCLESAWKTAQEGDHGSHVYTKALLAYAFALAGNQDKRKEVLKSLNEEAVKKDNSVHWERPQKPKAPVGHFYEPQAPSAEVEMTSYVLLAYLTAQPAPTSEDLTSATNIVKWITKQQNAQGGFSSTQDTVVALHALSKYGAATFTRTGKAAQVTIQSSGTFSSKFQVDNNNRLLLQQVSLPELPGEYSMKVTGEGCVYLQTSLKYNILPEKEEFPFALGVQTLPQTCDEPKAHTSFQISLSVSYTGSRSASNMAIVDVKMVSGFIPLKPTVKMLERSNHVSRTEVSSNHVLIYLDKVSNQTLSLFFTVLQDVPVRDLKPAIVKVYDYYETDEFAIAEYNAPCSKDLGNADYKDDDDKGASHHHHHH
